Measured values published in paper PMC4691284.

Target: Fer F-BAR domain (human) (UniProt P16591)
Assay: AUC

Chain of Fer F-BAR domain (P16591 1-264): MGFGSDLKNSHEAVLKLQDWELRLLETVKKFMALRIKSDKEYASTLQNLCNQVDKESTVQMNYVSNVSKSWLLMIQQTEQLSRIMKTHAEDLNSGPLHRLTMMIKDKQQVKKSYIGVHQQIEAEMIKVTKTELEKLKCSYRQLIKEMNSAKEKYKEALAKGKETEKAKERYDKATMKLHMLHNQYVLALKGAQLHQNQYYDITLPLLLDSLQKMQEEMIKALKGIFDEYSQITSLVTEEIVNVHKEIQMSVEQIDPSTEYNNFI

Fer F-BAR domain (from UniProt P16591 1-259) (domain or fragment)
stoichiometry N: 2 dimers
